Source: publication PMC8775495

Tests used:
WA20_H86K = test: not stated; in solution; shown in Figure S1, whose legend was not shown
[1] = target: recombinant Agrocybe cylindracea galectin (Agrocybe cylindracea); test: as above

stoichiometry N (WA20_H86K)	stoichiometry N [1]	Substance
2	–	WA20_H86K
–	2	recombinant Agrocybe cylindracea galectin (natural protein)
